The values below come from patent publication US20250215091A1, “Anti-GAL3 Antibodies and Compositions” (Les Laboratoires Servier, priority 2022, published 2025).

The target in experiment [1] is T1, full length mouse Galectin-3 (mouse, UniProt P16110 2-264).
T1 construct: Printed as 'full length'; recombinant, immobilized through a histidine tag; also called m-Gal3-FL; murine Gal3
The experiment can be described thus: dose-response ELISA on immobilized m-Gal3-FL, IgG. On the procedure:
(§1) To determine the half maximal effective concentration (EC50) of the antibodies, ELISA dose-response experiments were performed on Hu-Gal3-FL and on m-Gal3-FL.
(§2) Hu-Gal3-FL and m-Gal3-FL were immobilized at 3 μg/mL through their His-tag on functionalized microplates as before. A 3.3-fold serial dilution was carried-out with the purified IgGs, added to the wells containing immobilized Hu-Gal3-FL or m-Gal3-FL and detected with an anti-Fab.HRP antibody.

The target in experiment [2] is T2, full length human Galectin-3 (human, UniProt P17931 2-250).
T2 construct: Printed as 'full length'; recombinant, immobilized through a histidine tag; also called hu-Gal3-FL; Hu-Gal3-FL
The experiment can be described thus: dose-response ELISA on immobilized Hu-Gal3-FL, IgG. Here is the method: as §1, §2
For orientation: In an ELISA, binding on a coated surface is turned into a signal by an enzyme label.

The target in experiment [3] is T1, full length mouse Galectin-3. Put plainly: ratio of the ELISA EC50 values on Hu-Gal3-FL and m-Gal3-FL. Here is the method:
as §1, §2

Experiment [4] has as its target T3, CRD domain of human Galectin-3 (human, UniProt P17931 106-250).
T3 construct: Histidine-tagged; also called hu-Gal3-CRD; Hu-Gal3-CRD
The experiment can be described thus: SPR single-cycle kinetics, captured antibody, Gal3-CRD 0.5-50 nM. Here is the method: (§3) The CM5 sensor surface was first immobilized with an anti-human Fc mAb using a standard protocol. The entire sensor surface was first activated by injecting a 1:1 (v/v) mixture of 400 mM EDC and 100 mM NHS at a flow rate of 10 μL/minute for 7 minutes. Monoclonal anti-human Fc antibody (Millipore AP113), 25 μg/mL in Na acetate pH5, 360 s were flowed at 10 μL/minute to reach 10000 RU on both flow cells followed by the injection of 1 M ethanolamine, pH8.5 for 7 minutes at a flow rate of 10 μL/minute. During the entire immobilization procedure, HBS-P was used as the running buffer.
(§4) Antibody samples were prepared at 5 μg/ml and were injected for 30 seconds at 10 μL/minute. In general, 400 to 680 resonance units of antibodies were captured on the chip.
(§5) Kd values were also determined by SPR using […] kinetics analysis. A total of 5 concentrations of Gal3 CRD domain from human, dog, rat and cynomolgus (Novalix) [0.5-50] nM were injected over the antibody capture surfaces for 210 seconds followed by a dissociation phase of 600 seconds at 30 μL/minute. At the end of each cycle, capture surfaces were regenerated by 2 injections of glycine pH 1.5, for 30 seconds at 10 μL/minute, followed by an extra wash with glycine pH 1.5. Fresh antibody was captured at the beginning of each cycle.

For the next experiment, the target named is T4, Gal3 CRD domain from rat (rat, UniProt P08699 118-262, limits assumed).
T4 construct: domain: CRD domain; also called rat Gal3-CRD
T4 sequence (looked up): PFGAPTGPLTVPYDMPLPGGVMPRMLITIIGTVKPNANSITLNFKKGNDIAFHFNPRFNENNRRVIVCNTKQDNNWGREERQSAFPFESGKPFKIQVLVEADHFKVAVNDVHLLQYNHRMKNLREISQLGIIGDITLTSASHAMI
Described as above. On the procedure:
as §3, §4, §5

Experiment [5] concerns the target T5, Gal3 CRD domain from cynomolgus (cynomolgus, UniProt A0A7N9CYL1 103-247).
T5 construct: domain: CRD domain; also called cynomolgus Gal3-CRD
Described as above. Here is the method:
as §3, §4, §5

The next experiment deals with T6, Gal3 CRD domain from dog (dog, UniProt P38486 152-296, limits assumed).
T6 construct: domain: CRD domain; also called dog Gal3-CRD
T6 sequence (looked up): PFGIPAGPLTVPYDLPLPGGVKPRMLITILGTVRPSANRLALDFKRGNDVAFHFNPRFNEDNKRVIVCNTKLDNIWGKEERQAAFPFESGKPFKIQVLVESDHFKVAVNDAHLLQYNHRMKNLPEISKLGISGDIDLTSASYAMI
The experiment is described as above. Here is the method:
as §3, §4, §5

Experiment [6] deals with T2, full length human Galectin-3. Put plainly: SPR Biacore T-200, antibody captured by anti-human Fc, Gal3 in solution. On the procedure:
as §3, §4

The target in experiment [7] is T1, full length mouse Galectin-3. Described as above. Here is the method:
as §3, §4

Experiment [8] deals with T3, CRD domain of human Galectin-3. The experiment can be described thus: competitive ELISA, inhibition of ASF binding to immobilized Hu-Gal3-CRD. Here is the method: The inhibitory properties and IC50 of the anti-Gal3 antibodies were determined in an ELISA competitive assay by measuring the binding of ASF to immobilized CRD domain of human Gal3 in absence or presence of the antibodies at different concentrations.
The inhibition assay was performed on Hu-Gal3-CRD which was immobilized at 1 μg/mL through its His-tag on functionalized microplates. A 2-fold or 3-fold serial dilution was carried-out with the purified IgGs and added to the wells with immobilized Hu-Gal3-CRD. ASF (A1908-Sigma reference) was added at 8 μg/mL in each well with or without IgGs. ASF binding to Hu-Gal3-CRD was detected with the HRP-labeled anti-ASF sheep antibody. IC50 were estimated according to the model equation Y=Bottom+(Top−Bottom)/(1+(X/IC50)). Indicative maximal percentages of inhibition were obtained with the formula: 100%−(((mean of bottom plateau values of IgGs)×100%)/mean of irrelevant IgG values)

Experiment [9] has as its target T7, human full-length Galectin-1 (human, UniProt P09382 2-135).
T7 construct: full-length; Histidine-tagged; also called Hu-Gall; Gall
The experiment can be described thus: ELISA on immobilised antigen (3 µg/mL), purified IgG at 15-20 µg/mL, anti-Fab.HRP, OD 450 nm. Here is the method:
(§6) IgG specificity to Gal3 was tested by checking the absence of binding on human Gall and Gal7 by ELISA.
(§7) Hu-Gall and Hu-Gal7 were immobilized at 3 μg/mL. Purified IgGs were added into the wells (15-20 μg/mL final concentration) and detected with an anti-Fab.HRP antibody. Rabbit antibodies directed against Gall (Abcam ab25138 reference) and Gal7 (Abcam ab108623 reference) were used at 5 μg/mL as antigen-coating positive controls and detected with an anti-rabbit.HRP secondary antibody (7074S-Cell Signaling reference).

Experiment [10] concerns the target T8, human full-length Galectin-7 (human, UniProt P47929 1-136).
T8 construct: full-length; Histidine-tagged; also called Hu-Gal7; Gal7
The experiment is described as above. On the procedure: as §6, §7

T3 sequence (P17931 106-250 limits assumed): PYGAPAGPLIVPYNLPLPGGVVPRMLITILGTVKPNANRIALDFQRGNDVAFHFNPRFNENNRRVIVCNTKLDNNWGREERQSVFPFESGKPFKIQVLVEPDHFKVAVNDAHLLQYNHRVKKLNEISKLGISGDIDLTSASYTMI
T8 sequence (P47929 whole entry): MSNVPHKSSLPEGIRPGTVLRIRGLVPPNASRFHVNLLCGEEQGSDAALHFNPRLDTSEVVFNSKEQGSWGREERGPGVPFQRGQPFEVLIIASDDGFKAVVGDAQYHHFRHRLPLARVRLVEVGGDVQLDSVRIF
T1 sequence (P16110 2-264 limits assumed): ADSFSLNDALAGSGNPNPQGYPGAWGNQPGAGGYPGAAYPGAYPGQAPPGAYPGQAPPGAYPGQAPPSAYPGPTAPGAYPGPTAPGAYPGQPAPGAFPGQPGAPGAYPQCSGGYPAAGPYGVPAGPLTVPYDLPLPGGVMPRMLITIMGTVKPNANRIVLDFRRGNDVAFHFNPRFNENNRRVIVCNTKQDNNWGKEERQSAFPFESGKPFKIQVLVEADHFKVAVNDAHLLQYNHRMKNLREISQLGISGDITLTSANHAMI
T7 sequence (P09382 2-135 limits assumed): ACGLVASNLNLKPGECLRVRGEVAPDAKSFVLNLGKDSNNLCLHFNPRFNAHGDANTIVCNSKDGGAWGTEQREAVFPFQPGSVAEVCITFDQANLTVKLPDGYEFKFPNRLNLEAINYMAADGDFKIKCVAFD
T2 sequence (P17931 2-250 limits assumed): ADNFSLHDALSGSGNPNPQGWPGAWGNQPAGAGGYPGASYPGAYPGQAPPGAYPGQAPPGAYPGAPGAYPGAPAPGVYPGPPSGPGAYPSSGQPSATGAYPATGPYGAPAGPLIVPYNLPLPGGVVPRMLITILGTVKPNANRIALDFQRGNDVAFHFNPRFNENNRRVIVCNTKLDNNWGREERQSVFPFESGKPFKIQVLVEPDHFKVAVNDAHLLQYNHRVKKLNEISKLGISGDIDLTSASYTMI

B1: anti-Gal3 antibody D06 (antibody, V domains shown)
VH: EVQLVESGGSLVKPGGSLRLSCAASGFTFSNYNMNWVRQAPGKGLEWISSIYGSSRYIYYADFVKGRFTISRDNAKNSLYLQMNSLRAEDTAVYYCVRSGYGGMDVWGRGTLVTVSS
VL: QSVLTQPASVSGSPGQSITISCAGTSSDVGGYNGVSWYQQHPGKAPKLMIYYDSYRPSGVSNRFSGSKSGNTASLTISGLQAEDEADYYCSSGTDYSTRVFGGGTKLEIK
Regarding B1, the values for the concentration for a half-maximal effect (EC50) in [1] and in experiment [2] were 0.16 nM and 0.26 nM, respectively. Moreover, in experiment [3], the “Ratio (Human/mouse Gal3 EC50 ratio)” value was 2. Also, the Kd (commonly the constant that tells how readily two partners part at equilibrium) in [4] was 15 nM; with Gal3 CRD domain from rat, 4.8 nM; in [5], 10 nM; with Gal3 CRD domain from dog, 12 nM; in experiment [6] it was 13 nM; in [7], 1.34 nM. Also, in [8], the half-inhibitory concentration (IC50) (as a rule, the midpoint of a concentration-inhibition curve) turned out to be 5.1 nM. This molecule also displayed a Max % inhibition in experiment [8] of 82%. The binding result in [9] and in [10] was “no binding (tested: 15-20 µg/mL)” each time.

B2: anti-Gal3 antibody D11 (antibody, V domains shown)
VH: EVQLVESGGSLVKPGGSLRLSCAASGFTFSNYNMNWVRQAPGKGLEWISSIYGSSRYIYYADFVKGRFTISRDNAKNSLYLQMNSLRAEDTAVYYCVRSSYGGMDVWGRGTLVTVSS
VL: QSVLTQPASVSGSPGQSITISCAGTSSDVGGSYNVAWYQQHPGKAPKLMIYYDSYRPSGVSNRFSGSKSGNTASLTISGLQAEDEADYYCSSYTGYSTRVFGGGTKLEIK
Regarding B2, the EC50 – broadly, the concentration at which the effect is half-maximal – in experiment [1] came out at 0.99 nM; in experiment [2], 0.37 nM. Moreover, in experiment [3], the “Ratio (Human/mouse Gal3 EC50 ratio)” value amounted to 3. Moreover, the Kd is 26 nM in [4]; 8.6 nM in the experiment with Gal3 CRD domain from rat; 11 nM in experiment [5]; 26 nM in the experiment with Gal3 CRD domain from dog; 15 nM in experiment [6]; 2.8 nM in [7]. In experiment [8], this molecule returned an IC50 of 2.2 nM. Besides, the Max % inhibition in experiment [8] came to 99%. Besides, the binding result in experiment [9] and in [10] was “no binding (tested: 15-20 µg/mL)” in each case.

B3: anti-Gal3 antibody H10 (antibody, V domains shown)
VH: EVQLVESGGSLVKPGGSLRLSCAASGFTFSNYYMNWVRQAPGKGLEWISYINGASRDISYADFVKGRFTISRDNAKNSLYLQMNSLRAEDTAVYYCVRSSYGYSNYGSGMDVWGRGTLVTVSS
VL: QSVLTQPASVSGSPGQSITISCAGTSSDVGGSYNVAWYQQHPGKAPKLMIYNDANRPSGVSNRFSGSKSGNTASLTISGLQAEDEADYYCSSNTADSTRVFGGGTKLEIK
On to B3, for which the results for the half-maximal effective concentration (EC50) in experiment [1] and in experiment [2] were 5.9 nM and 0.2 nM, respectively. Further, the “Ratio (Human/mouse Gal3 EC50 ratio)” value in experiment [3] came to 30. Further, the dissociation constant Kd in experiment [4] was found to be 8.2 nM; with Gal3 CRD domain from rat, 12 nM; in [5], 5.6 nM; with Gal3 CRD domain from dog, 24 nM; in experiment [6], 4.5 nM; in experiment [7] it was 2.72 nM. This molecule came in with an IC50 in experiment [8] of 2.7 nM. Also, in experiment [8], the Max % inhibition was 89%. The binding result in experiment [9] and in [10] was “no binding (tested: 15-20 µg/mL)” each time.

B4: anti-Gal3 antibody E07 (antibody, V domains shown)
VH: EVQLVESGGSLVKPGGSLRLSCAASGFTFSNYNMNWVRQAPGKGLEWISNIYGSSRYIYYADFVKGRFTISRDNAKNSLYLQMNSLRAEDTAVYYCVRSYYGGMDVWGRGTLVTVSS
VL: QSVLTQPASVSGSPGQSITISCAGTSSDVGGYYSVSWYQQHPGKAPKLMIYYDSNRPSGVSNRFSGSKSGNTASLTISGLQAEDEADYYCSSYTGYSTRVFGGGTKLEIK
Regarding B4, the half-maximal effective concentration (EC50) in experiment [1] was 0.3 nM; in experiment [2], 0.07 nM. The “Ratio (Human/mouse Gal3 EC50 ratio)” value in [3] amounted to 4. In addition, the Kd in experiment [4] was determined as 14 nM; with Gal3 CRD domain from rat it was 15 nM; in experiment [5], 7.4 nM; with Gal3 CRD domain from dog, 23 nM; in [6], 9 nM; in experiment [7] it was 4.14 nM. The molecule further showed a 50% inhibitory concentration (IC50) in experiment [8] of 1.5 nM. This molecule had a Max % inhibition in experiment [8] of 89%. Also, the binding result in experiment [9] and in experiment [10] was “no binding (tested: 15-20 µg/mL)” throughout.
